# Reference: patent publication US7244706
# Assays:
# [1] = test system: pepstatin A
# [2] = target: human lactoferrin (LF), intact, purified from human milk/colostrum (UniProt P02788)
# Sequence of human lactoferrin (LF), intact, purified from human milk/colostrum (P02788 20-710): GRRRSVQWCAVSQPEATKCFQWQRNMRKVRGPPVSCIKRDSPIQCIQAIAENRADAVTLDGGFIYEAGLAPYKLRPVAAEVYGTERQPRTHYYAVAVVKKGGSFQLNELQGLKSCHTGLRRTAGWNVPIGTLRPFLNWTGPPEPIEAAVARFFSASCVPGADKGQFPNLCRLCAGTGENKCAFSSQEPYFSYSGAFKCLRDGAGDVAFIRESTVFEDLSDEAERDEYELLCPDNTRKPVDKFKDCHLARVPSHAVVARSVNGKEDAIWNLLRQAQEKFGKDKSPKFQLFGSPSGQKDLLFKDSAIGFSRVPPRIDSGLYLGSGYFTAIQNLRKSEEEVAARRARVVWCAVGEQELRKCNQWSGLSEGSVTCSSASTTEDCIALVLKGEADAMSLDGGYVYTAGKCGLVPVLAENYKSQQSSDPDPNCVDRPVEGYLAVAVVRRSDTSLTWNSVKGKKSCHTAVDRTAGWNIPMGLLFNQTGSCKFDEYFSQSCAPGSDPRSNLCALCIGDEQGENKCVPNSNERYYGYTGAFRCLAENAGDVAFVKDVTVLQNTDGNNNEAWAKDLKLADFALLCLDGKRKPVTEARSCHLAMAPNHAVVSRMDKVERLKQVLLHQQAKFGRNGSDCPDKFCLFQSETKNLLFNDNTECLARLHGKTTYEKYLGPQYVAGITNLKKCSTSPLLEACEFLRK
# Sequence of bovine spleen cathepsin D (Sigma) (chain, as listed by the source): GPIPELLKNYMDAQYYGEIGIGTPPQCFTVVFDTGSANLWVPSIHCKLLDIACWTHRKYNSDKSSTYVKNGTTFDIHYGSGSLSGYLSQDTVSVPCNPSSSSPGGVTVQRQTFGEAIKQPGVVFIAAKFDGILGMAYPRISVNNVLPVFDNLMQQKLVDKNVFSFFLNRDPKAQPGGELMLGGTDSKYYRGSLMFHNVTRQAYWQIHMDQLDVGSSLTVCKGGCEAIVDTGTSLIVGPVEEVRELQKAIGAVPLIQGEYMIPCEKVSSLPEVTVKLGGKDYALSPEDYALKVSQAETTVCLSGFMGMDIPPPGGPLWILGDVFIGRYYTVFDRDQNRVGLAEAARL
substance,measurement,setting,value
bovine spleen cathepsin D (Sigma),"loss of proteolytic release of the 6 kDa fragment from LF, seen by immunoblot",[1],"incubations of LF performed in the absence of cathepsin D or in the presence of pepstatin A, an inhibitor of cathepsin D, failed to identify a 6 kDa fragment"
same,"proteolytic release of the N-terminal 6 kDa polypeptide, seen by immunoblot",[2],"Exposure of either iron-saturated or iron-free LF to even small amounts of cathepsin D ( 1/200th, w:w) for a period as brief as five minutes yielded the N-terminal 6 kDa polypeptide"
